The text below walks through data of the supplement of paper PMC9170038.

Data set [1] concerns MS2 coat protein. Kind of data set: apparent KD of MS2 coat protein; designed switch direction (-1 OFF switch, 1 ON switch): 1; higher = weaker reporter binding. The conditions noted are these: Eterna round: R98. On the procedure: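 RNA-MaP: designed FMN/MS2 RNA switches (84 nt design region) are transcribed on-chip within common flanks and titrated with SNAP-549-labelled MS2 coat protein (about 1-3000 nM) in 100 mM Tris pH 7.5, 80 mM KCl, 4 mM MgCl2, without or with 200 uM FMN. Median apparent KD per design; activation ratio = KD,OFF / KD,ON.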

Data set [2] relates to MS2 coat protein. Kind of data set: apparent KD of MS2 coat protein, switch ON state; designed switch direction (-1 OFF switch, 1 ON switch): 1; higher = weaker reporter binding. The conditions noted are these: FMN input: 0 or 200 uM; Eterna round: R93 (includes R88 designs). The method, boiled down: (§1)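 For every design, apparent KD is the median of normalised binding-curve fits from its clusters. The RNA switches were transcribed on-chip from Illumina sequencing clusters and titrated with SNAP-549-labelled MS2 coat protein (twofold steps, 0.7 or 1.5 nM to 3 µM; 0.8–1.5 h to 10–20 min per step). Titrations used 100 mM Tris-HCl pH 7.5, 80 mM KCl, 4 mM MgCl2, without or with constant ligand.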

Data set [3] relates to MS2 coat protein. In words: apparent KD of MS2 coat protein, switch OFF state (with FMN for OFF switches, without FMN for ON switches); designed switch direction (-1 OFF switch, 1 ON switch): 1; higher = weaker reporter binding. The conditions noted are these: FMN input: 0 or 200 uM; Eterna round: R93 (includes R88 designs). In a few lines: as §1

For the sequence “AAAACAUACCGAGGAUAUUCAUAUAAUAAAUAAACAUGAGGAUCACCCAUUUGGCAAAAGCCUAGGGAGAAGGCGGAAUGCUAA [salish99_SSNG2_r2_119]”, in data set [1] (input ligand: FMN 200 uM), the “apparent KD of MS2 coat protein” value was 658 nM.

For “AAAACAUGAGGAUCACCCAUGUAAGAAUAAUUAAUUAUAAGUGAGGAUAUAUAAAUUAUAAAAUUGUAGAAGGCACUGGGUAUC [JR_SSNG3_Sub083]”, the results for the “apparent KD of MS2 coat protein” value in data set [1] (input ligand: FMN 200 uM) and in data set [1] (input ligand: none) were 83.6 nM and 71 nM, respectively.

With “ACUAGAAACGGGCAAUAACACAUGAGGAUCACCCAUGUGACACAGGAUAUAACCAGAUCAGAAAGUUAGAAGGGUGAGCCCGCA [Edraed Mod 1 - Jieux - Same State NG3]”, the “apparent KD of MS2 coat protein” value in data set [1] (input ligand: FMN 200 uM) came out at 23.8 nM; in data set [1] (input ligand: none) it was 23.7 nM.

With “AUAAUAACUUGAGGAUAUGCUCAGGAAUACUGAGCAGAAGGCAGGGAAACCUGAGGAUCACCCAGGUAAAUAAUAAUAAUAAUA [Same State NG1 - A3C, U17G Submission 1B]”, the “apparent KD of MS2 coat protein” value came out at 19.3 nM in data set [1] (input ligand: FMN 200 uM) and 24.5 nM in data set [1] (input ligand: none).

For the sequence “CGGAGACAUGAGGAUCACCCAUGUGAGAAGAGGCGAGGAUAUCGAAAAAAAAAAAAAAAACGAGAAGGCGCGAGAC [salish99-SS1-011]”, the “apparent KD of MS2 coat protein” value in data set [2] came out at 28.5 nM; in data set [3], 51.4 nM.

As to “CGGAGACAUGAGGAUCACCCAUGUGAGAAGAGGCGAGGAUAUCGAAAGAAAGAAGAGAAACGAGAAGGCGCGAGGA [salish99-SS1-067]”, the entries for the “apparent KD of MS2 coat protein” value in data set [2] and in data set [3] were 22.7 nM and 38.8 nM, respectively.

For “CGUGAACAUGAGGAUCACCCAUGUGAAAAACAUAGAGGAUAUGUCACGUGAGUGUAAAAGACAGAAGGCUAUCGUG [Mod 3 of Round 1 starryjess' Mod pf Nando]”, the “apparent KD of MS2 coat protein” value in data set [2] came out at 36.5 nM; in data set [3], 74.1 nM.

With “CUGGACAUAGUAUAGGAUAUAUGAAUAGUUACAUGAGGAUCACCCAUGUGCAUUUAUAUGCGAACAUAGAAGGGUGGUAGUUAAG [Mat - Same state - Malcolm Mod - D141]”, the “apparent KD of MS2 coat protein” value in data set [2] amounted to 88.4 nM; in data set [3] it was 48.4 nM.

Turning to “GAAAAACAUGAGGAUCACCCAUGUAAUACAACGUCAGGAUAUUGAUUUUAUUAUGUAUUGCAAGAAGGGACAAAAG [Mat - Same State 1 - Hyphema mod - D99]”, the “apparent KD of MS2 coat protein” value in data set [2] amounted to 95.2 nM; in data set [3] it was 49.4 nM.

Turning to “GAAAAACAUGAGGAUCACCCAUGUAGAAACUAGGGAGGAUAUACUAAGACGAAAGUCGAAGUAGAAGGCCUUUAAA [Same State 1.4m (Mat - Mod of Eli - )]”, the “apparent KD of MS2 coat protein” value in data set [2] is 14.2 nM; in data set [3], 14.7 nM.

Regarding “GAAAAACAUGAGGAUCACCCAUGUAGAAAUAUGGGAGGAUAUACAAACUCGAAAGACAAAGUAGAAGGCCUAAAAG [Garnet 24]”, the “apparent KD of MS2 coat protein” value in data set [2] worked out at 38.2 nM; in data set [3], 133 nM.

Consider “GAAAAACAUGAGGAUCACCCAUGUAGAAAUAUGGGAGGAUAUACAAACUCGAAAGUCAAAGUAGAAGGCCUAAAAG [Garnet 29]”, for which the “apparent KD of MS2 coat protein” value in data set [2] came out at 107 nM; in data set [3] it was 224 nM.

On to “GAAAAACAUGAGGAUCACCCAUGUAGAAAUAUGGGAGGAUAUACAAAGACGAAAGUCAAAGUAGAAGGCCCAUAAG [Starry Same State 1.6 (mat747 round 1 mod)]”, for which the “apparent KD of MS2 coat protein” value is 13.7 nM in data set [2] and 16.2 nM in data set [3].

With “GAAAAACAUGAGGAUCACCCAUGUAGAAAUAUGGGAGGAUAUACUAUGACGAAAGUCAAAGUAGAAGGUCUAAAAG [JL S1 M-MoE mod 6 In the Read]”, the “apparent KD of MS2 coat protein” value in data set [2] worked out at 166 nM; in data set [3], 125 nM.

Regarding “GAAAAACAUGAGGAUCACCCAUGUAGAGAUAUGGGAGGAUAUACAAAGACGAAAGUCGAGGUAGAAGGCCUAAAAG [Garnet 55]”, the “apparent KD of MS2 coat protein” value in data set [2] stood at 24.4 nM; in data set [3] it was 116 nM.

For “GAAAAACAUGAGGAUCACCCAUGUCGAGAGAGACGAGGAUAUCUGAAUCGAUUAGAUUACGGAGAAGGCGUGAAAG [Mat - Same State 1 - Hyphema mod - D96]”, the figures for the “apparent KD of MS2 coat protein” value in data set [2] and in data set [3] were 20.3 nM and 25.8 nM, respectively.

Turning to “GAAAAACAUGAGGAUCACCCAUGUGAAAACUUGGGAGGAUAUACAAAGACGAAAGUCGAAGUAGAAGGCCUAAAAG [Same State 1.4k (Mat - Mod of Eli - )]”, the “apparent KD of MS2 coat protein” value was 17.2 nM in data set [2] and 106 nM in data set [3].

For “GAAAAACAUGAGGAUCACCCAUGUGAUAACAUGGGAGGAUAUACAUGGACGAUAGUCAAAGUAGAAGGCCUAAAAG [Garnet 62]”, the “apparent KD of MS2 coat protein” value was determined as 104 nM in data set [2] and 32.1 nM in data set [3].

With “GAAAAACAUGAGGAUCACCCAUGUGGAAAUAUGGGAGGAUAUACUAAGACGAAAGUCGAUGUAGAAGGCCUAAAAG [Same State 1.4e (Mat - Mod of Eli - )]”, the entries for the “apparent KD of MS2 coat protein” value in data set [2] and in data set [3] were 22 nM and 82.9 nM, respectively.

Consider “GAAAUACAUGAGGAUCACCCAUGUUAGGUGGGUCAAGGAUAUUAAGGUAAAUAAAAACCUUGAGAAGGUGAAUAAA [JR_SS001_Sub203]”, for which the results for the “apparent KD of MS2 coat protein” value in data set [2] and in data set [3] were 157 nM and 239 nM, respectively.

Regarding “GAAGACAUAGUUCAGGAUAUAUGAAUAGUCACAUGAGGAUCACCCAUGUGCAUUUAUAUGCGCACAUAGAAGGGAGGUAGUUAUC [SameState2 Malc#24]”, the “apparent KD of MS2 coat protein” value in data set [2] was determined as 33.6 nM; in data set [3], 23.5 nM.

For “GAGAAACAUGAGGAUCACCCAUGUAGAAAUAUGGGAGGAUAUACAGAGACGAGAGUCAAAGUAGAAGGCCUAGAAG [77%, Mat - Mod of Eli - With 4 more G's]”, the “apparent KD of MS2 coat protein” value in data set [2] amounted to 32.1 nM; in data set [3], 66.1 nM.

For the sequence “GAGAGACAUGAGGAUCACCCAUGUAGGAUUAUGGGAGGAUAUACAAAGACGAGAGUCAGAGUAGAAGGCCUAGGAU [salish99-ss1-138(!)]”, the “apparent KD of MS2 coat protein” value in data set [2] amounted to 21.2 nM; in data set [3], 54.9 nM.

As for “GAGGACGUAGGAUAGGAUAUAUGAAUAAUUACAUGAGGAUCACCCAUGUCCAUUUAUAUGGGAACAUAGAAGGGUUGUGGUUAUC [SameState2 Malc#35]”, the “apparent KD of MS2 coat protein” value in data set [2] turned out to be 446 nM; in data set [3] it was 491 nM.

As to “GAUAGACAUGAGGAUCACCCAUGUAGAAUUAUGGGAGGAUAUACAAAGACGAGAGUCAGAGUAGAAGGCCUAGGAC [salish99-ss1-159]”, the “apparent KD of MS2 coat protein” value in data set [2] is 23.6 nM; in data set [3] it was 58.6 nM.

Regarding “GAUCCGACUAGUCAGGAUAUCAGGCGUAAGACAUGAGGAUCACCCAUGUCCUAAGAACAAGUAACUGAGAAGGGACAGGGCGACC [JR_SS002_Sub413]”, the “apparent KD of MS2 coat protein” value was determined as 62.3 nM in data set [2] and 62.4 nM in data set [3].

For the sequence “GGAAAUAACAGAGAGGAUAUCCAAAGGAAAACAUGAGGAUCACCCAUGUAAAAGGAAGGAAAUUGGGAGAAGGCUCAAAAUAAAU [salish99-ss2-015]”, the “apparent KD of MS2 coat protein” value in data set [2] was 20.4 nM; in data set [3], 29.1 nM.

“GGAACUACAGAUCAGGAUAUGUUUGGGUAAACAUGAGGAUCACCCAUGUGCACCCGAUACACAGGACAGAAGGGAUAACGUGGGA [Maondior]”: the “apparent KD of MS2 coat protein” value in data set [2] is 15.5 nM; in data set [3], 20.2 nM.

Regarding “GGGAGGAAGAGAGAGGAUAUCCAAAGGAAAACAUGAGGAUCACCCAUGUAAAAGGUAGGAAAUUGGGAGAAGGCUCAAGAGACCG [salish99-ss2-057]”, the “apparent KD of MS2 coat protein” value in data set [2] stood at 34.2 nM; in data set [3], 37.9 nM.

Take “GUAUAUAUAAGACAGGAUAUCCGAAAGUAAACAUGAGGAUCACCCAUGUAAAGAAAGAAACUCAUGGAGAAGGGUCAAUAUAUAC [Mat - Same State 2 - Tesla mod - D83]”: the figures for the “apparent KD of MS2 coat protein” value in data set [2] and in data set [3] were 22.2 nM and 66.7 nM, respectively.

As for “UAAAAACAUGAGGAUCACCCAUGUAAGAUAAACACAGGAUAUGCGAAAAGAAAGAAAGAAGCAGAAGGGUGAAAAU [Mat - Same State 1 - Tesla mod - 43]”, the “apparent KD of MS2 coat protein” value amounted to 15.9 nM in data set [2] and 41.6 nM in data set [3].

Consider “UAAAUACAUGAGGAUCACCCAUGUCAAGAGUAUUAAGGAUAUGAACCAGGGAACUGGCAGUCAGAAGGUGAGACUC [Ququeddi]”, for which the “apparent KD of MS2 coat protein” value came out at 235 nM in data set [2] and 65.2 nM in data set [3].

As to “UAACUACAUGAGGAUCACCCAUGUCUCCAGGGUCAAGGAUAUGGGCGUAGACAAACUACACCAGAAGGUGAUCCAA [Rireenon]”, the entries for the “apparent KD of MS2 coat protein” value in data set [2] and in data set [3] were 156 nM and 307 nM, respectively.

For the sequence “UACACGCGGGCGCAGGAUAUGUCGCUGGUGACAUGAGGAUCACCCAUGUAUACCAUUGCGGUUGAGCAGAAGGGUGAGACGCGUG [Matimare]”, the “apparent KD of MS2 coat protein” value in data set [2] is 15.1 nM; in data set [3], 57.5 nM.

For “UAUUAUUACACGAAGGAUAUCGAUAAUAGUACAUGAGGAUCACCCAUGUUCAUAUCAUUUUAGUUCGAGAAGGUCGAGGGUGAAG [JR_SS002_Sub709]”, the “apparent KD of MS2 coat protein” value was determined as 23.9 nM in data set [2] and 20.1 nM in data set [3].

As for “UUAAGCCACGGGCAGGAUAUGUAUUAAAAUACAUGAGGAUCACCCAUGUGCAGGUGUAACACCUGACAGAAGGGCCAAUCGCGGC [Soondi]”, the “apparent KD of MS2 coat protein” value in data set [2] is 21.5 nM; in data set [3], 241 nM.
